Residue numbers refer to the chain shown, from its start.
What was measured:
[1] = biological target: T1, rHuman Erythropoietin R/Fc Chimera, CF (R&D Systems Cat#963-ER) (human, UniProt P19235 25-250); experiment: ECL (MSD multi-spot), antigen spotted on plate; Fab 705 nM; blank spot 483;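 also: blank spot per well as comparator with Hit at signal to blank ratio of 4 or more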
T1 construct: Bought reagent; also called EPO R/Fc; Epo R; Fc part of the bought chimera not given
T1 sequence: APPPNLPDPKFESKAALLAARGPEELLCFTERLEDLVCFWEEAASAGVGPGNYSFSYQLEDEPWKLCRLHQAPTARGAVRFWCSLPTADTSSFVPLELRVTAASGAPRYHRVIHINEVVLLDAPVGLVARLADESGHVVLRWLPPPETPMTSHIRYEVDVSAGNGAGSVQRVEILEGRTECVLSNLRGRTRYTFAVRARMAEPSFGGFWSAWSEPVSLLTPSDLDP

[2] = biological target: T2, Recombinant Human DLL4 (R&D Systems Cat#1506-D4/CF) (human, UniProt Q9NR61 27-524); experiment: as above
T2 construct: Bought reagent; also called delta-like protein 4

[3] = biological target: T3, rHuman ErbB2/Fc Chimera, CF (R&D Systems Cat#1129-ER) (human, UniProt P04626 23-652); experiment: as above
T3 construct: Bought reagent; also called HER2/neu; human epidermal growth factor 2 receptor; Fc part of the bought chimera not given

[4] = biological target: T4, rHuman EGF R/Fc Chimera, CF (R&D Systems Cat#344-ER) (human, UniProt P00533 25-645); experiment: as above
T4 construct: Bought reagent; also called epidermal growth factor receptor; Fc part of the bought chimera not given

[5] = biological target: T5, rHuman HGF R/c-MET/Fc Chimera, CF (R&D Systems Cat#358-MT/CF) (human, UniProt P08581 25-932); experiment: as above
T5 construct: Bought reagent; also called HGF R/Fc; hepatocyte growth factor receptor; Fc part of the bought chimera not given

[6] = biological target: T6, rHuman Notch-1/Fc Chimera, CF (R&D Systems Cat#3647-TK) (human, UniProt P46531 19-526); experiment: as above
T6 construct: Bought reagent; Fc part of the bought chimera not given

[7] = biological target: T7, rHuman CD44/Fc Chimera, CF (R&D Systems Cat#3660-CD) (human, UniProt P16070 21-220); experiment: as above
T7 construct: Bought reagent; Fc part of the bought chimera not given

[8] = biological target: T8, rHuman IGF-1 sR (IGF-1 sR), CF (R&D Systems Cat#391-GR) (human, UniProt P08069 31-932); experiment: as above
T8 construct: Bought soluble receptor; also called insulin-like growth factor-1 soluble receptor; IGF-R1

[9] = biological target: T9, rHuman P-Cadherin/Fc Chimera, CF (R&D Systems Cat#861-PC) (human, UniProt P22223 108-654); experiment: as above
T9 construct: Bought reagent; also called CDH3; Fc part of the bought chimera not given

[10] = biological target: T10, rHuman CD44/Fc Chimera, CF (R&D Systems Cat#3660-CD) (human, UniProt P16070 21-220); experiment: ECL (MSD multi-spot), antigen on plate, Fab 5 nM
T10 construct: Bought Fc chimera; not shown: Fc of the bought chimera

[11] = biological target: T11, rHuman IGF-1 sR (insulin-like growth factor-1 soluble receptor), CF (R&D Systems Cat#391-GR) (human, UniProt P08069 31-932); experiment: ECL (MSD multi-spot), antigen on plate, Fab 50 nM;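 also: blank spot per well as comparator with Hit at signal to blank ratio of 4 or more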
T11 construct: Bought soluble receptor; also called IGF-R1

[12] = biological target: T12, rHuman P-Cadherin/Fc Chimera, CF (R&D Systems Cat#861-PC) (human, UniProt P22223 108-654); experiment: ECL (MSD multi-spot), antigen on plate, Fab 50 nM;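 also: blank spot per well as comparator with Hit at signal to blank ratio of 4 or more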
T12 construct: Bought Fc chimera; also called CDH3; not shown: Fc of the bought chimera

[13] = biological target: T13, rHuman Erythropoietin R/Fc Chimera, CF (R&D Systems Cat#963-ER) (human, UniProt P19235 25-250); experiment: ECL (MSD multi-spot), antigen on plate, Fab 50 nM;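 also: blank spot per well as comparator with Hit at signal to blank ratio of 4 or more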
T13 construct: Bought Fc chimera; also called EPO R/Fc; Epo R; not shown: Fc of the bought chimera
T13 sequence: T1 sequence

[14] = biological target: T14, Recombinant Human DLL4 (R&D Systems Cat#1506-D4/CF) (human, UniProt Q9NR61 27-524); experiment: ECL (MSD multi-spot), antigen on plate, Fab 50 nM;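 also: blank spot per well as comparator with Hit at signal to blank ratio of 4 or more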
T14 construct: Bought recombinant protein; also called delta-like protein 4

[15] = biological target: T15, rHuman ErbB2/Fc Chimera, CF (R&D Systems Cat#1129-ER) (human, UniProt P04626 23-652); experiment: ECL (MSD multi-spot), antigen on plate, Fab 50 nM;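 also: blank spot per well as comparator with Hit at signal to blank ratio of 4 or more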
T15 construct: Bought Fc chimera; also called HER2/neu; not shown: Fc of the bought chimera

[16] = biological target: T16, rHuman EGF R/Fc Chimera, CF (R&D Systems Cat#344-ER) (human, UniProt P00533 25-645); experiment: ECL (MSD multi-spot), antigen on plate, Fab 50 nM;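 also: blank spot per well as comparator with Hit at signal to blank ratio of 4 or more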
T16 construct: Bought Fc chimera; also called ErbB-1; not shown: Fc of the bought chimera

[17] = biological target: T17, rHuman HGF R/c-MET/Fc Chimera, CF (R&D Systems Cat#358-MT/CF) (human, UniProt P08581 25-932); experiment: ECL (MSD multi-spot), antigen on plate, Fab 50 nM
T17 construct: Bought Fc chimera; also called HGF R/Fc; not shown: Fc of the bought chimera

[18] = biological target: T18, rHuman Notch-1/Fc Chimera, CF (R&D Systems Cat#3647-TK) (human, UniProt P46531 19-526); experiment: ECL (MSD multi-spot), antigen on plate, Fab 50 nM
T18 construct: Bought Fc chimera; not shown: Fc of the bought chimera

[19] = biological target: T10, rHuman CD44/Fc Chimera, CF (R&D Systems …); experiment: ECL (MSD multi-spot), antigen on plate, Fab 50 nM

B1: Fab VH1-46_IGHD3-10*01_IGHJ4*01 & B3_IGKJ1*01 (Fab, V domains shown)
VH: QVQLVQSGAEVKKPGASVKVSCKASGYTFTSYYMHWVRQAPGQGLEWMGIINPSGGSTSYAQKFQGRVTMTRDTSTSTVYMELSSLRSEDTAVYYCAREYYYGSGSYYNDYFDYWGQGTLVTVSS
VL: not shown
notes: also called IGHV1-46*01
Work on B1 yielded an ECL signal [1] of 4890, an ECL signal [2] of 981 and an ECL signal [3] of 671. It also gave an ECL signal [4] of 692, an ECL signal [5] of 839 and an ECL signal [6] of 958. For the same binder, the ECL signal [7] was 693, the ECL signal [8] was 630 and the ECL signal [9] was 827.

B2: Fab VH1-46_IGHD6-6*01_IGHJ1*01_S102A_S103P_S104Y_H111Y & L6_IGKJ1*01 (Fab, V domains shown)
VH: QVQLVQSGAEVKKPGASVKVSCKASGYTFTSYYMHWVRQAPGQGLEWMGIINPSGGSTSYAQKFQGRVTMTRDTSTSTVYMELSSLRSEDTAVYYCAREEYAPYSAEYFQYWGQGTLVTVSS
VL: not shown
notes: Fab made in E. coli; The heavy chain also carries CH1 with Flag and His tags from Plasmid A, and the light chain carries kappa CL from Plasmid C
B2 gave an ECL signal [10] of 2760 ECL signal.

B3: Fab VH1-46_IGHD6-6*01_IGHJ1*01_S102A_S103P_S104F & L6_IGKJ1*01_S28P (Fab, V domains shown)
VH: B2 VH with Y104F, Y111H
VL: EIVLTQSPATLSLSPGERATLSCRASQPVSSYLAWYQQKPGQAPRLLIYDASNRATGIPARFSGSGSGTDFTLTISSLEPEDFAVYYCQQRSNWPPWTFGQGTKVEIKR
notes: Fab
B3 was tested, and the ECL signal [11] was 355 ECL signal, the ECL signal [12] was 431 ECL signal and the ECL signal [13] was 527 ECL signal. The ECL signal [14] was 37700 ECL signal, the ECL signal [15] was 384 ECL signal and the ECL signal [16] was 328 ECL signal. For the same binder, the ECL signal [17] was 183 ECL signal, the ECL signal [18] was 477 ECL signal and the ECL signal [19] was 340 ECL signal.

From US20120058906A1 (published 2012)
